Data as given in the Human Domainome abundance scans (Beltran et al. 2025).

B1: Dynamin-binding protein, residues 242 to 304; numbered along this chain, Q6XZF7 (parent)
chain: EEPGTYGVALYRFQALEPNELDFEVGDKIRILATLEDGWLEGSLKGRTGIFPYRFVKLCPDTR

Variants of: B1
Test: abundance fitness (aPCA) (normalised: wild type 0, dead -1); higher = more abundant; growth selection in yeast, the domain comes from the species named
Details: Homo sapiens

Abundance fitness: each site, then its substitutions
D27: C -0.811, A -0.426, Q -0.723, S -0.695, H -0.927, N -0.424, E -0.316, G -0.776, I -0.786, F -0.799, T -0.656, R -0.79, W -0.485, M -0.537, K -0.902, Y -0.587, V -0.934, L -0.642
L32: Q -0.243, D -0.495, G -0.635, P -0.687, F -0.652, N -0.097, K -0.588, A -0.866, M -0.394, I -0.19, H -0.008, C -0.657
R30: T -0.644, V -0.73, K 0.268, S -0.41, F -0.462, W -0.921, A -0.155, N -0.306, L -0.148, M -0.651, I -0.454, P -0.15, E -0.328, Y -0.398, C -0.367
I31: L -0.702, M -0.755, Q -0.084, S -0.879, N -0.85, A -1.03, H -0.448, Y -0.91, W -0.901, E -0.587, R -0.883, T -0.722, P -0.862, C -0.527, K -0.85, F -0.926, D -0.743, V -0.463, G -0.512
A15: N -0.588, V -0.608, F -0.982, Y -0.774, Q -0.787, H -0.472, S 0.131, E -0.734, W -0.637, P -0.355, M -0.639, T 0.06, L -0.626, G 0.019, C -0.617
D22: Q 0.148, R -0.185, A 0.25, W -0.624, P 0.157, E 0.043, F -0.016, M -0.301, K -0.062, T -0.054, G -0.02, C -0.125, Y -0.108, I -0.913, S 0.101, N -0.04, V -0.682
E17: F -0.513, W -0.488, G 0.072, A 0.029, Q 0.189, T -0.157, V -0.4, R 0.151, C -0.259, S -0.062, N 0.158, H 0.229, Y -0.234, K 0.391, L -0.011, I -0.783, P -1.01
I29: G -0.738, W -0.823, S -0.776, V -0.533, P -0.35, L -0.573, N -0.845, H -0.634, E -0.721, R -0.649, D -0.685, C -0.839, Q -0.955, A -0.702, Y -0.808, F -0.561, T -0.639, M -0.735
P18: D -0.044, W -0.424, H -0.291, Q -0.042, G -0.492, F -0.659, V -0.332, T -0.333, R -0.04, S -0.113, Y -0.473, C -0.412, A -0.188, L -0.42, N -0.275, K -0.336, M -0.419, E -0.006
Q14: L -0.265, F -0.413, G -0.696, I -0.188, N -0.198, T -0.109, R -0.2, S -0.321, C -0.268, D -0.264, W -0.572, Y -0.172, V -0.115, K -0.205, E -0.131, H -0.032
N19: A -0.18, T -0.223, Y -0.299, V -0.563, P -0.704, G -0.055, F -0.297, R -0.167, M -0.494, I -0.644, Q -0.188, K -0.227, S -0.275, C -0.518, L -0.52
F23: H -0.787, P -1.09, Q -0.767, V -0.334, T -0.775, Y -0.688, A -0.585, I -0.165, D -0.867, M -0.227, K -0.13, E -0.94, L -0.136, N -0.805, W -0.63, G -0.682, C -0.717, R -0.684, S -0.527
G26: T -0.831, F -0.682, N -0.563, V -0.844, C -0.334, P -1.07, S -0.674, R -0.866, Q -0.061, I -0.744, Y -0.847, L -0.598, E -1.01, A -0.86, D -0.568, M -1.02, H -0.718, K -0.643
E24: Y -0.423, N -0.032, P -0.75, I -0.444, C -0.414, F -0.301, H -0.199, G -0.596, Q -0.024, T -0.278, M -0.313, R -0.445, D 0.009, W -0.438, V -0.471, L -0.491, A -0.593
F13: L -0.74, P -0.644, S -0.534, V -0.71, N -0.023, T -0.831, K -0.207, W -0.483, M -0.072, Y 0.213, Q -0.212, R 0.11
V25: L -0.933, P -0.14, E -0.475, S -0.448, F -0.573, M -0.169, A -0.089, N -0.736, G -0.539, C -0.328, I -0.142, Y -0.463, D -0.899, T -0.412, Q -0.548, K 0.095, R -0.223
E20: A -0.163, M 0.023, K -0.068, G -0.246, T 0.06, D -0.631, I -0.65, Q 0.069, R -0.258, C -0.014, L -0.067, P -1.03, V -0.703, S -0.468, F 0.155, Y 0.059, N -0.227
L21: E -0.643, Q -0.455, H -0.469, T -0.522, K -0.744, M -0.852, I -0.636, A -1.01, Y -1.03, G -0.96, N -0.843, C -0.851, S -0.542, F -0.771, V -0.619, D -1.03, P -0.782, R -0.839
K28: Y -0.519, A -0.7, L -0.57, F -0.596, E -0.157, G -0.711, I -0.278, D -0.799, R -0.05, V -0.205, T -0.282, H -0.044, S -0.535, Q -0.604, N -0.418, P -0.553, M -0.529
L16: F -0.067, Y -0.137, R 0.316, D 0.047, M 0.242, W -0.501, E -0.027, G 0.073, K -0.077, T 0.344, Q 0.284, A 0.187, I 0.03, V 0.117, N 0.35, P -0.697, H 0.141, C 0.09, S 0.29
